Results on four molecules are retold here after patent US20110065647A1 (BIOSEARCH 2007, published 2011).

In one assay the target is rNaV1.3 channels (rat, UniProt P08104 1-1951). The experiment in a line: cell-based or functional assay.
For another assay, the target named is rNaV1.8 channels (rat, UniProt Q62968 1-1956). As to the kind of experiment: cell-based or functional assay.

Ends that are not written are not given here.

Chain of rNaV1.3 channels (P08104 whole entry): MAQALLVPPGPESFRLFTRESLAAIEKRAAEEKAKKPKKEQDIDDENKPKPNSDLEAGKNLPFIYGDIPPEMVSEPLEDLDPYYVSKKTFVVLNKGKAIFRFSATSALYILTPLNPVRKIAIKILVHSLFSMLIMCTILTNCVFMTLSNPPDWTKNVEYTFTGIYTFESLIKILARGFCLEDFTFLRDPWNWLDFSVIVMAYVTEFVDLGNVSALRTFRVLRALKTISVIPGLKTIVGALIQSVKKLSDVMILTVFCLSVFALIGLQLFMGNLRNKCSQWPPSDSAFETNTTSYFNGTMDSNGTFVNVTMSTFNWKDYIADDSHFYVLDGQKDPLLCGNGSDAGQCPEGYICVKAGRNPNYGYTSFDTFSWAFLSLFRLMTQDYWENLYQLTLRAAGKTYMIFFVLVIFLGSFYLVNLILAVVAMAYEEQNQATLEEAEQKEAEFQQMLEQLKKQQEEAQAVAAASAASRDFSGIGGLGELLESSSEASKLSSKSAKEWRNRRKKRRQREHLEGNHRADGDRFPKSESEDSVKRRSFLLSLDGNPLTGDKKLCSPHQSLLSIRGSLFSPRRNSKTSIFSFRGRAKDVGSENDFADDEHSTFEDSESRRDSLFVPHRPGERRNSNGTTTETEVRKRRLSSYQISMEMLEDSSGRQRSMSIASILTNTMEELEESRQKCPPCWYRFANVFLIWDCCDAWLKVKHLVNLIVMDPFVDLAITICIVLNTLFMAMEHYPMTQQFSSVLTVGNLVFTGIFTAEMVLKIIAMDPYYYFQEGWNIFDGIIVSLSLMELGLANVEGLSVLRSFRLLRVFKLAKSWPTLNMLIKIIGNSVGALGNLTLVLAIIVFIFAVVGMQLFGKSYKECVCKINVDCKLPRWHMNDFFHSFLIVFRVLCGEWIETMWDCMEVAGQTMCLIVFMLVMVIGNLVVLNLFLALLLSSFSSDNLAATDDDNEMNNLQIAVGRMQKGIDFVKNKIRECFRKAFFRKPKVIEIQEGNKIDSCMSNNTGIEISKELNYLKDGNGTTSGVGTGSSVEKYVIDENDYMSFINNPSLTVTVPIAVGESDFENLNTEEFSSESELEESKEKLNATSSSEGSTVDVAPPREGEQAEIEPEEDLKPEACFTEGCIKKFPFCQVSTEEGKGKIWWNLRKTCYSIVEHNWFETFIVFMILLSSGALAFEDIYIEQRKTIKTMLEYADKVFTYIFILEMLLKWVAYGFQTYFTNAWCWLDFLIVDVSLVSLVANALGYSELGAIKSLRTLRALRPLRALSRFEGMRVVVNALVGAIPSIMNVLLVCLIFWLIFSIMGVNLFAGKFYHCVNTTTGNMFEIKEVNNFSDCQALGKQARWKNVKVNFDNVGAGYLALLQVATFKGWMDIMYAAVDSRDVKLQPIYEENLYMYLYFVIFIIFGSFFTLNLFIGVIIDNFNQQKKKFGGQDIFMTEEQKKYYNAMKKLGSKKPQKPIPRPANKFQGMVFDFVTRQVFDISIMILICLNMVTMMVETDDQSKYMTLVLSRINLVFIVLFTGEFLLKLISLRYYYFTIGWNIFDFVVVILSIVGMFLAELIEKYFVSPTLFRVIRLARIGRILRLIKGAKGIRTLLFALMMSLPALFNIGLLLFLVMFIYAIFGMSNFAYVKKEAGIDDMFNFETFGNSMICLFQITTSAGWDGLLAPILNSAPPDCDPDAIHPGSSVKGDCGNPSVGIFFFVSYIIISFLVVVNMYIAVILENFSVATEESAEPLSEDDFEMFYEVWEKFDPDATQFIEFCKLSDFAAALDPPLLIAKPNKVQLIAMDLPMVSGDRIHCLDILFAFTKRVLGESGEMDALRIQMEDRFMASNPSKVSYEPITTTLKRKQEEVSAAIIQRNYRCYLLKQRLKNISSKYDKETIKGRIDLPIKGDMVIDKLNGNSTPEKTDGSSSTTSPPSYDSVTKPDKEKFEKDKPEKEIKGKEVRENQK
Chain of rNaV1.8 channels (Q62968 whole entry): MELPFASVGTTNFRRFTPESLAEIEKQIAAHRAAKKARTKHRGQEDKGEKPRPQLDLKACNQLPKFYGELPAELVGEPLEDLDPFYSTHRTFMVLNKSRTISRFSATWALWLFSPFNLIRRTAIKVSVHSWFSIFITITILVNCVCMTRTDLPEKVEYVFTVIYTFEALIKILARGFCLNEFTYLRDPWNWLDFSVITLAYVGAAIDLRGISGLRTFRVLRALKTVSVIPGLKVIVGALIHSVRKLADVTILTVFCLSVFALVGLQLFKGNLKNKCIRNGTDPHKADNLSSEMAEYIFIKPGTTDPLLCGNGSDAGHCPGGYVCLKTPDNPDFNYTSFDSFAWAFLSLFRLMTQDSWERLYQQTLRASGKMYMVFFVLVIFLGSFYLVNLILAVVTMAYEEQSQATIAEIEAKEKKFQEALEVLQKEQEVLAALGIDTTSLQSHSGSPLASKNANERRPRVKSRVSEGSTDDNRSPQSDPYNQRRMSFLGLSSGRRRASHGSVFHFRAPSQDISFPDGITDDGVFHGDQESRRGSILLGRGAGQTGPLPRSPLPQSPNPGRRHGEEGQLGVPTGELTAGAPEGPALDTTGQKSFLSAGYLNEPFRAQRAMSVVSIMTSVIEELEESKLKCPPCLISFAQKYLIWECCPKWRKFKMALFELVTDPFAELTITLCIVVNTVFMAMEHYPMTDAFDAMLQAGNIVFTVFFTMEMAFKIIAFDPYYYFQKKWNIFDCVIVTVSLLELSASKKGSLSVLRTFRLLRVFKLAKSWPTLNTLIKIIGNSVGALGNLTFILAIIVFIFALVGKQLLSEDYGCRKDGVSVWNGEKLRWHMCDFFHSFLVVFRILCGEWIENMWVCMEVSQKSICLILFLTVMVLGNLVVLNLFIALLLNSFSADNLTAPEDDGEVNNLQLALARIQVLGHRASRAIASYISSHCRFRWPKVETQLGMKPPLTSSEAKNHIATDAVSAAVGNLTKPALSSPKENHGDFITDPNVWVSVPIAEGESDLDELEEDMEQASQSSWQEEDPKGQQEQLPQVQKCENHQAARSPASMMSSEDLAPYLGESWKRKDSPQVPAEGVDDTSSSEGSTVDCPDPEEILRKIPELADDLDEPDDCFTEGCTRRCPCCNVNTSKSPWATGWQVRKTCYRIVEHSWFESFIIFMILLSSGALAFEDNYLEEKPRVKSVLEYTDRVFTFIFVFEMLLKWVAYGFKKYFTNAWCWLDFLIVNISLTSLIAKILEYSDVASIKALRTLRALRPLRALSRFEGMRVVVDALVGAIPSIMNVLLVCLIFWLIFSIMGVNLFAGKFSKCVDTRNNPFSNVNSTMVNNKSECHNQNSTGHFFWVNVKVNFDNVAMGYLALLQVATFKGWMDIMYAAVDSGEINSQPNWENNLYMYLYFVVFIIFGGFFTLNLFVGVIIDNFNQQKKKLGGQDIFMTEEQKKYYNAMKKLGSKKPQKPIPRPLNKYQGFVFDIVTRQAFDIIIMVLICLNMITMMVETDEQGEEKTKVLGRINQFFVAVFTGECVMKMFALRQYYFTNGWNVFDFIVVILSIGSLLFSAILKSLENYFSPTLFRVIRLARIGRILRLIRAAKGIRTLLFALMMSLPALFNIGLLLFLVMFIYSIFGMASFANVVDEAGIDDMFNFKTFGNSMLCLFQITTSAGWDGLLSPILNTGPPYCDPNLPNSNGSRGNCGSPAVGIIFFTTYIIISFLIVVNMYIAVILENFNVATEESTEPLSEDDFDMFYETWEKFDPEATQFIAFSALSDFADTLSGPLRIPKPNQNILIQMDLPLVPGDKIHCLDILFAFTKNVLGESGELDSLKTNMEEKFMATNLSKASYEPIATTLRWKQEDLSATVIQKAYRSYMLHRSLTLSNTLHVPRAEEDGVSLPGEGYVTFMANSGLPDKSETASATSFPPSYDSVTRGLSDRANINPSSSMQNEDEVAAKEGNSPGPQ

B1: Peptide B (peptide)
peptide: YCQEFLWTCDEERKCCGDMVCRLWCKKRL-NH2
modifications: disulfide (positions not given here); not fully specified (bridges); also: three disulphide bridges, probably C1-C4, C2-C5, C3-C6
Consider B1, for which the “IC50 Nav1.3 (µM); inhibition of channel current, patch clamp” value (shortened to “IC50 Nav1.3 (µM); inhibition”) with rNaV1.3 channels worked out at 0.23 µM.

B2: Peptide A (peptide)
peptide: DDCLGMFSSCDPDNDKCCEGRKCNRKDKWCKYVL-NH2
modifications: disulfide (positions not given here); not fully specified (bridges); also: three disulphide bridges, probably C1-C4, C2-C5, C3-C6
On to B2, for which the “IC50 Nav1.3 (µM); inhibition” value with rNaV1.3 channels is 1.75 µM. Also, the “IC50 Nav1.8 (µM); inhibition of channel current, patch clamp” value with rNaV1.8 channels was found to be 2.5 µM.

B3: Peptide C (peptide)
peptide: ACLGFGEKCNPSNDKCCKSSSLVCSQKHKWCKYGW
modifications: disulfide (positions not given here); not fully specified (bridges); also: three disulphide bridges, probably C1-C4, C2-C5, C3-C6
For the molecule B3, the “IC50 Nav1.3 (µM); inhibition” value in the assay with rNaV1.3 channels stood at 1.2 µM.

B4: Peptide F (peptide)
peptide: DCLGWFKGCDPDNDKCCEGYKCNRRDKWCKYKLW
modifications: disulfide (positions not given here); not fully specified (bridges); also: three disulphide bridges, probably C1-C4, C2-C5, C3-C6
As to B4, the “IC50 Nav1.3 (µM); inhibition” value with rNaV1.3 channels stood at 0.13 µM. The “IC50 Nav1.8 (µM); inhibition of channel current, patch clamp” value with rNaV1.8 channels was determined as 0.17 µM.
